Target: adzuki bean (Vigna angularis) β-vignin protein (Vigna angularis (adzuki bean))
Assay: SEC; gel molecular sieving on a Sephadex G-200 column (50 cm x 2.5 cm) under native condition, 0.58 mL/min, room temperature; calibrated with standard proteins; apparent molecular size compared with the subunits' Mr from SDS-PAGE

stoichiometry N: 3
Substance: adzuki bean (Vigna angularis) β-vignin protein (natural protein)
